Columns and labels:
[1] = tested on: TALE test backbone, repeat 5 RVD ND (Xanthomonas sp. (engineered)); details: RVD ND
[2] = tested on: TALE test backbone, repeat 5 RVD NN (Xanthomonas sp. (engineered)); details: RVD NN
[3] = tested on: TALE test backbone, repeat 5 RVD HG (synthetic (Xanthomonas TALE)); details: ELISA
[4] = tested on: TALE test backbone, repeat 5 RVD TA (synthetic (Xanthomonas TALE)); details: ELISA
[5] = tested on: TALE test backbone, repeat 5 RVD KT (synthetic (Xanthomonas TALE)); details: ELISA
[6] = tested on: TALE test backbone, repeat 5 RVD AN (synthetic (Xanthomonas TALE)); details: ELISA
[7] = tested on: TALE test backbone, repeat 5 RVD NI (Xanthomonas sp. (engineered)); details: RVD NI
[8] = tested on: TALE test backbone, repeat 5 RVD YG (synthetic (Xanthomonas TALE)); details: ELISA
[9] = tested on: TALE test backbone, repeat 5 RVD IG (synthetic (Xanthomonas TALE)); details: ELISA
[10] = tested on: TALE test backbone, repeat 5 RVD AA (synthetic (Xanthomonas TALE)); details: ELISA
[11] = tested on: TALE test backbone, repeat 5 RVD QG (synthetic (Xanthomonas TALE)); details: ELISA
[12] = tested on: TALE test backbone, repeat 5 RVD LA (synthetic (Xanthomonas TALE)); details: ELISA
[13] = tested on: TALE test backbone, repeat 5 RVD AT (synthetic (Xanthomonas TALE)); details: ELISA
[14] = tested on: TALE test backbone, repeat 5 RVD DH (synthetic (Xanthomonas TALE)); details: ELISA
[15] = tested on: TALE test backbone, repeat 5 RVD SN (synthetic (Xanthomonas TALE)); details: ELISA
[16] = tested on: TALE test backbone, repeat 5 RVD VG (synthetic (Xanthomonas TALE)); details: ELISA
[17] = tested on: TALE test backbone, repeat 5 RVD TP (synthetic (Xanthomonas TALE)); details: ELISA
[18] = tested on: TALE test backbone, repeat 5 RVD IA (synthetic (Xanthomonas TALE)); details: ELISA
[19] = tested on: TALE test backbone, repeat 5 RVD RG (synthetic (Xanthomonas TALE)); details: ELISA
[20] = tested on: TALE test backbone, repeat 5 RVD HI (synthetic (Xanthomonas TALE)); details: ELISA
[21] = tested on: TALE test backbone, repeat 5 RVD NS (synthetic (Xanthomonas TALE)); details: ELISA
[22] = tested on: TALE test backbone, repeat 5 RVD KD (Xanthomonas sp. (engineered)); details: RVD KD
[23] = tested on: TALE test backbone, repeat 5 RVD RA (synthetic (Xanthomonas TALE)); details: ELISA
[24] = tested on: TALE test backbone, repeat 5 RVD KG (synthetic (Xanthomonas TALE)); details: ELISA
[25] = tested on: TALE test backbone, repeat 5 RVD AD (synthetic (Xanthomonas TALE)); details: ELISA
[26] = tested on: TALE test backbone, repeat 5 RVD NG (Xanthomonas sp. (engineered)); details: RVD NG
[27] = tested on: TALE test backbone, repeat 5 RVD IP (synthetic (Xanthomonas TALE)); details: ELISA
[28] = tested on: TALE test backbone, repeat 5 RVD AE (synthetic (Xanthomonas TALE)); details: ELISA
[29] = tested on: TALE test backbone, repeat 5 RVD NA (synthetic (Xanthomonas TALE)); details: ELISA
[30] = tested on: TALE test backbone, repeat 5 RVD GG (synthetic (Xanthomonas TALE)); details: ELISA
[31] = tested on: TALE test backbone, repeat 5 RVD KS (synthetic (Xanthomonas TALE)); details: ELISA
[32] = tested on: TALE test backbone, repeat 5 RVD SG (synthetic (Xanthomonas TALE)); details: ELISA
[33] = tested on: TALE test backbone, repeat 5 RVD QA (synthetic (Xanthomonas TALE)); details: ELISA
[34] = tested on: TALE test backbone, repeat 5 RVD HA (synthetic (Xanthomonas TALE)); details: ELISA
[35] = tested on: TALE test backbone, repeat 5 RVD HN (synthetic (Xanthomonas TALE)); details: ELISA
[36] = tested on: TALE test backbone, repeat 5 RVD KI (synthetic (Xanthomonas TALE)); details: ELISA
[37] = tested on: TALE test backbone, repeat 5 RVD RI (synthetic (Xanthomonas TALE)); details: ELISA
[38] = tested on: TALE test backbone, repeat 5 RVD DK (synthetic (Xanthomonas TALE)); details: ELISA
[39] = tested on: TALE test backbone, repeat 5 RVD HD, standard framework (SEQ 333) (Xanthomonas sp. (engineered)); details: reference
[40] = tested on: TALE repeat framework V7A (SEQ 403) repeat 5: V7A (Xanthomonas sp. (engineered)); details: average of 3 experiments
[41] = tested on: TALE repeat framework Q5A (SEQ 75) repeat 5: Q5A (Xanthomonas sp. (engineered)); details: average of 3 experiments
[42] = tested on: TALE repeat framework Q23K (SEQ 415) repeat 5: Q23K (Xanthomonas sp. (engineered)); details: average of 3 experiments
[43] = tested on: TALE repeat framework S11A (SEQ 409) repeat 5: S11A (Xanthomonas sp. (engineered)); details: average of 3 experiments
[44] = tested on: TALE repeat framework T21A/Q23R/R24A (SEQ 423) repeat 5: T21A,Q23R,R24A (Xanthomonas sp. (engineered)); details: average of 3 experiments
[45] = tested on: TALE repeat framework T2S/P3T/D4A/T21A/Q23R/R24A (SEQ 425) repeat 5: T2S,P3T,D4A,T21A,Q23R,R24A (Xanthomonas sp. (engineered)); details: average of 3 experiments
[46] = tested on: TALE repeat framework L26A (SEQ 420) repeat 5: L26A (Xanthomonas sp. (engineered)); details: average of 3 experiments
[47] = tested on: TALE repeat framework I9A (SEQ 406) repeat 5: I9A (Xanthomonas sp. (engineered)); details: average of 3 experiments
[48] = tested on: TALE repeat framework E20A (SEQ 410) repeat 5: E20A (Xanthomonas sp. (engineered)); details: average of 3 experiments
[49] = tested on: TALE repeat framework L25A (SEQ 418) repeat 5: L25A (Xanthomonas sp. (engineered)); details: average of 3 experiments
[50] = tested on: TALE repeat framework R24A (SEQ 417) repeat 5: R24A (Xanthomonas sp. (engineered)); details: average of 3 experiments

## TTGACCATCCT (double strand) [CCA target]
[1]
  binding signal (normalized ELISA): 0.73
[2]
  binding signal (normalized ELISA): 0
[3]
  binding signal (normalized ELISA): 0.11
[4]
  binding signal (normalized ELISA): 0.2
[5]
  binding signal (normalized ELISA): 0.81
[6]
  binding signal (normalized ELISA): 0
[7]
  binding signal (normalized ELISA): 0.04
[8]
  binding signal (normalized ELISA): 0.02
[9]
  binding signal (normalized ELISA): 0.02
[10]
  binding signal (normalized ELISA): 0.35
[11]
  binding signal (normalized ELISA): 0.11
[12]
  binding signal (normalized ELISA): 0.02
[13]
  binding signal (normalized ELISA): 0.58
[14]
  binding signal (normalized ELISA): 0.01
[15]
  binding signal (normalized ELISA): 0.01
[16]
  binding signal (normalized ELISA): 0.02
[17]
  binding signal (normalized ELISA): 0.2
[18]
  binding signal (normalized ELISA): 0.24
[19]
  binding signal (normalized ELISA): 0.26
[20]
  binding signal (normalized ELISA): 0.1
[21]
  binding signal (normalized ELISA): 0.26
[22]
  binding signal (normalized ELISA): 0.61
[23]
  binding signal (normalized ELISA): 0.89
[24]
  binding signal (normalized ELISA): 0.27
[25]
  binding signal (normalized ELISA): 0.4
[26]
  binding signal (normalized ELISA): 0.14
[27]
  binding signal (normalized ELISA): 0.13
[28]
  binding signal (normalized ELISA): 0
[29]
  binding signal (normalized ELISA): 0.67
[30]
  binding signal (normalized ELISA): 0.35
[31]
  binding signal (normalized ELISA): 0.78
[32]
  binding signal (normalized ELISA): 0.23
[33]
  binding signal (normalized ELISA): 0.19
[34]
  binding signal (normalized ELISA): 0.53
[35]
  binding signal (normalized ELISA): 0
[36]
  binding signal (normalized ELISA): 0.11
[37]
  binding signal (normalized ELISA): 0.05
[38]
  binding signal (normalized ELISA): 0
[39]
  binding signal (normalized ELISA): 1
[40]
  binding signal (normalized ELISA): 0.26
[41]
  binding signal (normalized ELISA): 1.03
[42]
  binding signal (normalized ELISA): 0.92
[43]
  binding signal (normalized ELISA): 0.9
[44]
  binding signal (normalized ELISA): 1.42
[45]
  binding signal (normalized ELISA): 0
[46]
  binding signal (normalized ELISA): 1
[47]
  binding signal (normalized ELISA): 0.62
[48]
  binding signal (normalized ELISA): 0.82
[49]
  binding signal (normalized ELISA): 1.09
[50]
  binding signal (normalized ELISA): 0.92

From patent US20110301073
